From patent US20240287172A1 (SCIRHOM, published 2024) come the findings set out here.

Residue numbers refer to the chain shown, from its start.

Sequences and labels used below:
T1: hiR1-FL-WT-T7 (human, UniProt Q96CC6 1-855)
T1 construct: on MEF-DKO cells
T1 sequence: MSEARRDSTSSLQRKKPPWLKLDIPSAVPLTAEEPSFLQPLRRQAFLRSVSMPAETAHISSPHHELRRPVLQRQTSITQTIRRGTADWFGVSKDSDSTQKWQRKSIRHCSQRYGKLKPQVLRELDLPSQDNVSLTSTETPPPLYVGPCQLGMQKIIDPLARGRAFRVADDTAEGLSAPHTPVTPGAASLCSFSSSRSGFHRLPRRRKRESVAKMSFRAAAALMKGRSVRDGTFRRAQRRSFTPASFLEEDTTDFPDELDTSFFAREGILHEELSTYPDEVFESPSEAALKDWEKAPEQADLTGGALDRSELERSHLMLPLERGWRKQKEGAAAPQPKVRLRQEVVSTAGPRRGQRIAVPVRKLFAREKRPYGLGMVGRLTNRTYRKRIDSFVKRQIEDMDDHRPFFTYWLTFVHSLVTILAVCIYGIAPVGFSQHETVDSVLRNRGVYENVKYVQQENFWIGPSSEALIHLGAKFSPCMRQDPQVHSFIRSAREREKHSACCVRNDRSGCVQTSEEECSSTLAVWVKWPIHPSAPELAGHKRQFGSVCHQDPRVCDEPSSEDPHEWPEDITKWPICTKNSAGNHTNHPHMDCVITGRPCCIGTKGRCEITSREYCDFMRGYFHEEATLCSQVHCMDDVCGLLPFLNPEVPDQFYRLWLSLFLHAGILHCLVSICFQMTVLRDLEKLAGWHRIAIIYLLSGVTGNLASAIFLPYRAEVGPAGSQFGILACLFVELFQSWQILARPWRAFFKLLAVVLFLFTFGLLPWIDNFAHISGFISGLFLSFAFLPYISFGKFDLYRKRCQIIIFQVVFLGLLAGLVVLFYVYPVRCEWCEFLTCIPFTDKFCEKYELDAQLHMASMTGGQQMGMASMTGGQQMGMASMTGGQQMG

T2: hiR2-FL-T530P-T7 (human, UniProt Q6PJF5 1-856)
T2 sequence: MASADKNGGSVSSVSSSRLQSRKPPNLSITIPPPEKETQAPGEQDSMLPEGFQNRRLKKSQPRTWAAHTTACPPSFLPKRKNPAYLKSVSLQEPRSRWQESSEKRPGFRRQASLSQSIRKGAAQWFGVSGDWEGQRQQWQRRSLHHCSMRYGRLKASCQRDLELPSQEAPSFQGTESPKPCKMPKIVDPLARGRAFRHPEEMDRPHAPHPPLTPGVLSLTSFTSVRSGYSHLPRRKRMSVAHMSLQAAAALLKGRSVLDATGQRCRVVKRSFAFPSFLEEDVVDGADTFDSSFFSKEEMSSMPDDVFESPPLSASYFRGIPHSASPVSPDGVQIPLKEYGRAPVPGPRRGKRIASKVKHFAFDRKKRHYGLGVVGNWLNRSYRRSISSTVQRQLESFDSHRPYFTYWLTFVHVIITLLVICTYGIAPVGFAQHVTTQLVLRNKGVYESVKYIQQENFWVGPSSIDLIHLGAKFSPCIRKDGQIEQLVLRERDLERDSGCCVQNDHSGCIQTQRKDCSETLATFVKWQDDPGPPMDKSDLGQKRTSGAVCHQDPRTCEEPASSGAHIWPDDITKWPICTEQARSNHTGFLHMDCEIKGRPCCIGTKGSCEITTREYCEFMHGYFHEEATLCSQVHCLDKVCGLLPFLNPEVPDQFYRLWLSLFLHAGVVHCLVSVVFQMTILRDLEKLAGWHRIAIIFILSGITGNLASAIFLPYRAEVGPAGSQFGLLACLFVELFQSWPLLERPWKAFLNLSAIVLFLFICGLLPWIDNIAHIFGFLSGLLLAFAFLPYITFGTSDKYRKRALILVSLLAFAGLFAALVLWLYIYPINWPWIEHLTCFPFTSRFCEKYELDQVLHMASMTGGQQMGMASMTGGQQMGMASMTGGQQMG

T3: hiR2-FL-P532A-T7 (human, UniProt Q6PJF5 1-856)
T3 sequence: T2 sequence with P530T, P532A

B1: antibody 43 (antibody, V domains shown)
VH: QVALKESGPGILQPSQTLSLTCSFSGFSLSTFGMGVGWIRQSSGKGLEWLANIWWDDDKYYNPALKSRLTISKDASKNQAFLKIANVDTADTATYYCARIGNYGSNYWYFDVWGTGTTVTVSS
VL: QIVLTQSPAIMSASPGERVTMTCSANSRISYMYWYQQKPGSSPRLLIYDTSNLASGVPVRFSGSGSGTSYSLTISRMEAEDAATYNCQQWSSYPLTFGAGTKLELK
notes: mouse IgG, kappa light chain; also called clone #43; purified antibody 43
B2: antibody 44 (antibody, V domains shown)
VH: B1 VH with A3T, S42P, G44E, N52H, A75T, A80I, A85T, D91E, A98S
VL: QIVLTQSPAVMSASPGEKVTMTCTASSSVYYMYWYQQTPGSSPRLLIYDTSNLASGVPVRFSGSGSGTSYSLTISRMEAEDAATYYCQQWNTYPLTFGAGTKLELK
notes: mouse IgG, kappa light chain; also called clone #44; purified antibody 44
B3: antibody 42 (antibody, V domains shown)
VH: B1 VH with A3T, F24L, M34R, S42P, N52H, D58E, A75T, A80V, K83R, G101Q
VL: B1 VL with Q1L, R18K, S24G, N26T, Y33F, L45V, M77V, A82V, N86Y, S91N
notes: mouse IgG, kappa light chain; also called clone #42; purified antibody 42
B4: antibody 50 (antibody, V domains shown)
VH: QVQLQQSGAELVRPGASVKVSCKASGYAFSNYLIEWVKQRPGQGLEWIGVINPGSGFTKYNEKFKGKATLTADKSSSTAYMQLSSLTSEDSAVYFCARGLYRAMDYWGQGTSVTVSS
VL: DIQMTQSPASQSASLGESVTITCLASQTIGTWLAWYQQKPGKSPQLLIYAAASLADGVPSRFSGGGSGTKFSFKISSLQAEDFVNYYCQQIYSTPYTFGGGTKLEIK
notes: mouse IgG, kappa light chain; also called clone #50; purified antibody 50
B5: antibody 34 (antibody, V domains shown)
VH: QVTLKESGPGILQPSQTLSLTCSFSGFSLSTFSLGVGWIRQSSGKGLEWLAHIWWDDEKYYNPALKSRLTISKDTSKNQVFLKIANVDAADTATYYCARAYYSKSYYALDYWGQGTSVTVSS
VL: DIQMTQSPSSLSASLGERVSLTCRASQEISGYLSWLQQKPDGTIKRLIYAASTLDSGVPKRFSGSRSGSDYSLAISSLESEDFADYYCLQYANFPFTFGSGTKLEIK
notes: mouse IgG, kappa light chain; also called clone #34; purified antibody 34
B6: antibody 48 (antibody, V domains shown)
VH: B4 VH with A9T, A16T, S30T, A79V, Q82H
VL: B4 VL with G30A, A50G, A52T, S53T, N85S, I91L
notes: mouse IgG, kappa light chain; also called clone #48; purified antibody 48
B7: antibody 5 (antibody, V domains shown)
VH: B1 VH with A3T, S42P, N52H, D58E, P63S, D74A, A75T, G101S, D111N
VL: QVVLTQSPALMSASPGEKVTMTCSAGSSVSCMYWYQQKPGSSPRVLIYDTSNLASGVPARFTGSGSGTSYSLTISRMEAEDAASYYCQQWNSYPLTFGAGTKLELK
notes: mouse IgG, kappa light chain; also called clone #5; purified antibody 5
B8: antibody 22 (antibody, V domains shown)
VH: B1 VH with A3T, S42P, N52H, D58E, P63S, D74A, A75T, A80V, G101S, D111N
VL: B7 VL with C31Y, S84T
notes: mouse IgG, kappa light chain; also called clone #22; purified antibody 22

In one assay the target is T1, hiR1-FL-WT-T7. As to the kind of experiment: FACS on MEF-DKO cells.
Take B1: the binding result is “no binding (tested: 3 µg/ml)”.

Take B2: the binding result is “no binding (tested: 3 µg/ml)”.

As to B3, the binding result is reported as “no binding (tested: 3 µg/ml)”.

As for B4, the binding result is listed as “no binding (tested: 3 µg/ml)”.

B5: the binding result is “no binding (tested: 3 µg/ml)”.

The next assay has as its target T2, hiR2-FL-T530P-T7. Kind of assay: FACS, MEF-DKO cells, 3 µg/ml. (In flow cytometry, cells or beads pass a laser one at a time.)
Turning to B3, the “loss of binding vs wild type” value is at least 30%.

As for B6, the “loss of binding vs wild type” value was at least 30%.

With B4, the “loss of binding vs wild type” value was at least 30%.

The target of the next assay is T3, hiR2-FL-P532A-T7. Kind of assay: FACS, MEF-DKO cells, 3 µg/ml.
Turning to B7, the “loss of binding vs wild type” value was at least 60%.

Regarding B1, the “loss of binding vs wild type” value is at least 60%.

B2: the “loss of binding vs wild type” value was at least 60%.

For the molecule B3, the “loss of binding vs wild type” value was at least 60%.

As to B8, the “loss of binding vs wild type” value is at least 30%.
